Biological target: microtubules (porcine brain Tubulin) (porcine (brain)) (UniProt P02550)
Assay: turbidimetry

Sequence of LEM2_(1-208) (Q8NC56 1-208): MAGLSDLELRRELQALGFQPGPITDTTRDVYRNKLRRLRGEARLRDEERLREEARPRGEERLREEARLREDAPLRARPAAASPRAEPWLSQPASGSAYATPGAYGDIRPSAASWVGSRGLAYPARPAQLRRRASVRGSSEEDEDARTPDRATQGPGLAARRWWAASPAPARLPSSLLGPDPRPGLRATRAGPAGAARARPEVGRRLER
Sequence of LEM2_(188-212) peptide (Q8NC56 188-212): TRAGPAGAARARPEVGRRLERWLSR

Substance | half-maximal scattering concentration (MT bundling) [µM] | half maximal concentration (MT bundling) [µM]
LEM2_(1-208) (from UniProt Q8NC56 1-208) (domain or fragment) | 1.3 | 
LEM2_(188-212) peptide (from UniProt Q8NC56 188-212) |  | 85.1
